Results published in patent publication WO2008074868A1 (dated 2008).
Substitutions are numbered along the chain they refer to. Values belong to the binder of their own block, whether it stands above or below them.

Assays:
[1] = biological target: T1, human serum albumin (human, UniProt P02768 25-609); assay: SPR (Biacore T100), periplasmic extracts over immobilized human serum albumin
T1 construct: also called HSA

[2] = biological target: T1, human serum albumin; assay: SPR (Biacore T100) over immobilized human serum albumin, pH 7, pH 6 and pH 5
[3] = biological target: T2, ectodomain of human plgR (R&D Systems Cat # 2717-PG) (human, UniProt P01833 19-638); assay: competition ELISA, dilution series of purified Nanobody against IgA on immobilized plgR ectodomain
T2 construct: extracellular domain; Immobilized at 5 ug/ml on Maxisorp plates; also called plgR ectodomain; pIgR
T2 sequence (P01833 19-638): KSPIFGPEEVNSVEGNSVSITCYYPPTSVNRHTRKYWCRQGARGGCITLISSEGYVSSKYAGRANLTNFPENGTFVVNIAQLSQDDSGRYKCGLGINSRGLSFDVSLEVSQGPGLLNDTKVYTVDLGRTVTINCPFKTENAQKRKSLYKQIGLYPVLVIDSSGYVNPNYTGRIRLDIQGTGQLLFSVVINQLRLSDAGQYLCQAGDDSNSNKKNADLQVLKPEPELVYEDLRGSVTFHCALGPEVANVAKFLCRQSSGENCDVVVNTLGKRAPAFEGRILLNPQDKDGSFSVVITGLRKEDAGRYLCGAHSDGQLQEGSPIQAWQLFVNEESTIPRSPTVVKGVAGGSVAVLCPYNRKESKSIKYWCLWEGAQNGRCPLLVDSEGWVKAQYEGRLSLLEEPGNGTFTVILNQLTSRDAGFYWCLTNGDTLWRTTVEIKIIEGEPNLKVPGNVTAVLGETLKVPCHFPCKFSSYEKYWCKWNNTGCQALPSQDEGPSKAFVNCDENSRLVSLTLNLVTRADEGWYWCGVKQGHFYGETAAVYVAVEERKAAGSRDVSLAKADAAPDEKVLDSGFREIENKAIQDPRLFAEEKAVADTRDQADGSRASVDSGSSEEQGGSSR

[4] = biological target: T3, human plgR overexpressed in MDCK cells (human, UniProt P01833 19-764); assay: immunofluorescence on MDCK cells overexpressing human plgR, 3 uM Nanobody at 4C
T3 construct: whole, on cells; also called hpIgR; human polymeric immunoglobulin receptor
T3 sequence (P01833 19-764): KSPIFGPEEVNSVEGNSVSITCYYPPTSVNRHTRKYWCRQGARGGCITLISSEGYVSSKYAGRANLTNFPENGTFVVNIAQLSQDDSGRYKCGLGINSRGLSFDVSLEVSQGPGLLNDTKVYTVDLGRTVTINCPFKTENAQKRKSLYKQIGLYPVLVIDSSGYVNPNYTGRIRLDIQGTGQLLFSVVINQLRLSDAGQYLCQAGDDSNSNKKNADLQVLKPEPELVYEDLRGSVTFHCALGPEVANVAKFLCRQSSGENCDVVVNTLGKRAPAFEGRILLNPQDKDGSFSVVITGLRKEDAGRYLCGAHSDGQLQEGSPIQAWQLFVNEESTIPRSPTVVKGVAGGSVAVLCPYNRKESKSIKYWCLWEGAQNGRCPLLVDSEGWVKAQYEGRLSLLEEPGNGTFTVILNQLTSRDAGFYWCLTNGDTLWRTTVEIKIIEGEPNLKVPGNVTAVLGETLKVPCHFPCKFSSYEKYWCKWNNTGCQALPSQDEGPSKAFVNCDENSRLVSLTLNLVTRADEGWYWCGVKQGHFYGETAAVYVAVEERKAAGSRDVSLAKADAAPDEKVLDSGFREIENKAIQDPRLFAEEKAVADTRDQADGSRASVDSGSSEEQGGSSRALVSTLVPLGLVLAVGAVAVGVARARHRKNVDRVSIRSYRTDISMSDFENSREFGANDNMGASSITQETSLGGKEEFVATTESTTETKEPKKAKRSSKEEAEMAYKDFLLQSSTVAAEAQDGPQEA

[5] = biological target: T1, human serum albumin; assay: SPR (Biacore T100), periplasmic extracts over immobilized human serum albumin, pH 7 and pH 5
[6] = biological target: T3, human plgR overexpressed in MDCK cells; assay: immunoprecipitation from cell lysates with His-tagged Nanobody and talon beads, blot with a-hSC

binding result [1]: binds
B1: 4A6 (VHH)
VHH: EVQLVESGGGLVQPGGSLRLSCAASPFTLDYYAIGWFRQAPGKEREGVSCSTSHGKTYHADSVKGRFTISRDNAKNTVYLQMNSLKPEDTAVYYCAAGACMGGSGYEADFGSWGQGTQVTVSS
notes: Tested as periplasmic extract; also called 4Aό

binding result [2]: binds
B2: 4B1 (VHH)
VHH: B1 VHH with A23V, S25A, P26G, S51I, H54D, K56R, H59Y, N73M, N76K, T77M
notes: Tested as periplasmic extract; also called 4Bl

binding result [3]: binds | binding result [4]: binds
B3: 1E7 (VHH)
VHH: EVQLVESGGGLVQAGGSLRLSCAASGRTFSNYVMGWFRQAPGKEREFVAAISWSGVTTYHYSADSVKGRFTTSRDNDRNTAHLQMNSLKPEDTAVYYCAARGRTGSDPRKGDDYDYWGQGTQVTVSS

fold difference in off rate (pH 5 against pH 7) [5]: 0.54 fold
B4: 4A9 (VHH)
VHH: EVQLVESGGGLVQAGGSLRLSCEASGFTLDYSGVGWFRQAPGKERELVSCISRGGDRAGYANSVKGRFTMSRDNAKNILYLQMNSLKPEDTAVYYCAATHSGSGCYDGAIDYWGKGTLVTVSS

binding result [1]: binds
B5: 4C9 (VHH)
VHH: EVQLVESGGGLVQAGDSLRLSCTASERPFSTYVMGWFRRAPGKEREFVGGITWSGINAWYTDSVLGRFTISSDNAKNTVYLQMNSLKPEDTAVYYCAAASGVGRYRYELQYDYWGQGTQVTVSS
notes: Tested as periplasmic extract

binding result [1]: binds
B6: 4C4 (VHH)
VHH: EVQLVESGGGLVQAGDSLRLSCAASGRPFMSYVMGWFRRAPGKEREFVGGINWGSGNTWYTDSVLGRFTISRDNAKNTVYLQMNSLKPEDTAVYYCATAAGVGYYRYERQYDYWGQGTQVTVSS
notes: Tested as periplasmic extract

binding result [1]: binds
B7: 4C5 (VHH)
VHH: B6 VHH with M30S, S31A, G54N, G56A, R72K, T98A, A100G
notes: Tested as periplasmic extract; also called 4CS

binding result [3]: binds | binding result [4]: binds
B8: 1D2 (VHH)
VHH: EVQLVESGGGLVQPGGSLRLSCAASGFTLDYYAIGWFRRAPGKEREGVSCTSSSDGSTYYADSVKGRFTISRDNAKNTVYLQMNSLKPEDTAVYYCATTFGDACTVVAGIPDQYDFGSWGQGTQVTVSS

binding result [3]: binds
B9: 4D9 (VHH)
VHH: B8 VHH with A33D, R39Q
notes: Purified Nanobody

binding result [1]: binds
B10: 4C8 (VHH)
VHH: EVQLVESGGGLVQAGDSLRLSCAASGRTYTPYVMGWFRRAPGKEREFVGAVSWSGTNTWYTDSVKGRFTISRDNAKNTVYLQMNSLKPEDTAVYYCAAGDGVGIYRYEHQYDYWGQGTQVTVSS
notes: Tested as periplasmic extract

binding result [1]: binds
B11: 4C3 (VHH)
VHH: EVQLVESGGGLVQAGGSLRLSCAASGRTFSSYAMAWFRQAPGEEREFVATISVSGGYTYYADSVKGRFTISRDNAKNTVYLQMNTLKPEDTAVYYCAAGDSSSWLEHMYDYWGQGTQVTVSS
notes: Tested as periplasmic extract

binding result [6]: binds
B12: 4B7 (VHH)
VHH: EVQLVESGGGLVQAGGSLRLSCAASGFTFDDYAIGWFRQAPGKEREGVSCISSRDGITYYADSVKGRFTISSDNAKNTVYLQMNSLKPEDTAVYYCAADLVGSFPCPVAAYDYWGQGTQVTVSS

binding result [2]: binds
B13: 4B10 (VHH)
VHH: EVQLVESGGGLVQAGDSLRLSCAASGRTFSSYAMGWFRQAPGTERQFVARITGKGDSTDYADSVRGRFTISRDNAKNTVYLQMNSLKPEDTAVYYCAADAFNSLLQAGRAEYWGQGTQVTVSS
notes: Tested as periplasmic extract; also called 4B1Θ

binding result [1]: binds
B14: 4B8 (VHH)
VHH: EVQLVESGGGLVQAGGSLRLSCAASGGTYSGNAMAWFRQAPGKEREFVAGIDWSSENTRYIDSVKGRFTISRDNAKNTMYLQMNSLKPEDTAVYYCAAGTSWGALASRLEAAYSSWGQGTQVTVSS
notes: Tested as periplasmic extract

binding result [1]: binds
B15: 4B5 (VHH)
VHH: B14 VHH with G16D, G27R, G31R, N77S
notes: Tested as periplasmic extract

binding result [1]: binds
B16: 4B6 (VHH)
VHH: B14 VHH with E1K, A14V, A23V, G27R, S30G, I61T, A111N, S115A
notes: Tested as periplasmic extract

binding result [3]: binds | binding result [6]: binds
B17: 1D7 (VHH)
VHH: EVQLVESGGGLVQSGGSLRLSCAASGRAFNYYAMGWFRQAPGKERELVAVINWSGGTTSYADSVKGRFTISRSNAKNTVYLQMSSLKPEDTAVYYCAADSIYRTSKDYNYWGQGTQVTVSS
